Data published in US20140213523A1 (TIVORSAN PHARMACEUTICALS, published 2014).

Biological target: the molecule itself
Assay: Analytical ultracentrifugation (sedimentation velocity) at three concentrations, 20 mM Tris pH 8, 0.5 M NaCl, 20 °C; self-association of T2-rhBGN (M form to D form)
Experimental: FIG. 1. Analytical ultracentrifugation of HIC pool purified from CHO clone 57.
T2-rhBGN was purified from conditioned media of CHO clone 57 and 171 and HEK 293 clone 2 by a combination of anion exchange and hydrophobic interaction (HIC). Analytical ultracentrifugation (AUC) of HIC pool purified from CHO Clone 57 resolved into two sedimentation peaks: M with a sedimentation coefficient: s_{20,w}≈2.88 and D with coefficient s_{20,w}≈4.28 (FIG. 1). […] Experiments were performed at 20° C., in a Beckman Optima XL-I analytical ultracentrifuge. Spin Analytical charcoal upon 12 mm double-sector centerpieces were used in an eight-hole AN 50 Ti rotor at 45,000 rpm. Radial absorption scans were measured at λ=280 nm. Sedfit 12.44 was used for data analysis, with a 68% confidence limit (analyticalultracentrifugation.com). Sedimentation coefficients were corrected to standard s_{20,w} conditions using the experimental buffer density and buffer viscosity as calculated with […] (sednterp.unh.edu). Buffer: 20 mM Tris, pH 8, 0.5M NaCl; viscosity=0.01002 Poise; density=1.004989 g/mL. Partial specific volume, v-bar=0.74413 mL/g calculated from amino acid composition with Sednterp.

B1: T2-rhBGN (T2 recombinant human biglycan) (other)
chain: DEEAAGADTAGVLDPDSVTPTYSAMCPFGCHCHLRVVQCSDLGLKSVPKEISPDTTLLDLQNNDISELRKDDFKGLQHLYALVLVNNKISKIHEKAFSPLRKLQKLYISKNHLVEIPPNLPSSLVELRIHDNRIRKVPKGVFSGLRNMNCIEMGGNPLENSGFEPGAFDGLKLNYLRISEAKLTGIPKDLPETLNELHLDHNKIQAIELEDLLRYSKLYRLGLGHNQIRMIENGSLSFLPTLRELHLDNNKLARVPSGLPDLKLLQVVYLHSNNITKVGVNDFCPMGFGVKRAYYNGISLFNNPVPYWEVQPATFRCVTDRLAIQFGNYKK
modifications: N-linked glycans (M and D forms differ in N-glycan profile); no GAG side chains
notes: Purified from conditioned medium of CHO clone 57 by anion exchange and HIC; The pool is a mixture of the M form (generally monomeric) and the D form (generally dimeric); No tags are stated; also called HIC pool; M-rhBGN
  Kd: ~50 µM
